Series [1] has as its system Nc1nc2c(ncn2[C@@H]2O[C@H](COP(=O)(O)OP(=O)(O)OP(=O)(O)O)[C@@H](O)[C@H]2O)c(=O)[nH]1. Briefly: purified protein. The settings on record: pyrophosphorylase activity, 250 μM Fuc-1-P, 10 mM MgCl2, pH 7.5, 37 °C.
Series [2] relates to C[C@@H]1O[C@H](OP(=O)(O)O)[C@@H](O)[C@H](O)[C@@H]1O. The series can be described thus: purified protein. The settings on record: pyrophosphorylase activity, 400 μM GTP, 10 mM MgCl2, pH 7.5, 37 °C.
The target of another series is T1, TxFKP (Thermophagus xiamenensis, UniProt A0A1I2DJ10).
T1 construct: gene SAMN05444380_11920; codon-optimized gene in pET-28a, E. coli BL21(DE3) with GroEL/GroES/Trigger Factor; Ni-IMAC; GroEL (~60 kDa) contaminant remains
T1 sequence (A0A1I2DJ10 1-954): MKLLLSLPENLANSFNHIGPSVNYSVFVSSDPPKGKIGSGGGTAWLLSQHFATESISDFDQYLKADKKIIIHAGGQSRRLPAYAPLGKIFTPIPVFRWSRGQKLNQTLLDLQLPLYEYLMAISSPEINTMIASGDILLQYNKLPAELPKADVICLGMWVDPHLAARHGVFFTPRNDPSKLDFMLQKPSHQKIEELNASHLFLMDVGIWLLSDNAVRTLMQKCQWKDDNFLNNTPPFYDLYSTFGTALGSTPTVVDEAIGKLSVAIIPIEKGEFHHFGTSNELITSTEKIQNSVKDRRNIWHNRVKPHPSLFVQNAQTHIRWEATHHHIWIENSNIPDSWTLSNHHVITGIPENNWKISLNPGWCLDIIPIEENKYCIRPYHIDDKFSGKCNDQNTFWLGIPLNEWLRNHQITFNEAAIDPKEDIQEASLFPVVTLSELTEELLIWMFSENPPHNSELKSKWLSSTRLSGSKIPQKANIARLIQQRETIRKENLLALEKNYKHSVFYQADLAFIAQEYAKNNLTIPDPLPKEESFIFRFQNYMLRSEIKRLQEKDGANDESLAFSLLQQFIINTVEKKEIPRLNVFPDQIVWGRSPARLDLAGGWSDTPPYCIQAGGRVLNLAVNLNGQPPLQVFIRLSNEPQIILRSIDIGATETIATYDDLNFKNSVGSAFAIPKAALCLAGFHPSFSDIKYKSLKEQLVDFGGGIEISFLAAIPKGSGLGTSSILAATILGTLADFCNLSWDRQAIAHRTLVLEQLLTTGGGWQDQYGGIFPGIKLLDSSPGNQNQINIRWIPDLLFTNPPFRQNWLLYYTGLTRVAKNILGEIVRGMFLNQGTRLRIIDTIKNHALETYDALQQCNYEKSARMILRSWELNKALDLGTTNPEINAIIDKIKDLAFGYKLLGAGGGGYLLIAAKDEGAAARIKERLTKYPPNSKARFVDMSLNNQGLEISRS
Briefly: thermal shift, SYPRO orange. The format is binding. The settings on record: 2 mM L-fucose, pH 7.0; Tm2 assigned to FUK domain. The source says:
thermal shift, SYPRO orange on TxFKP

Another series addresses T2, BfFKP (Bacteroides fragilis, UniProt Q58T34).
T2 construct: gene fkp; codon-optimized gene in pET vector, E. coli BL21(DE3) with GroEL/GroES/Trigger Factor; Ni-IMAC; no solubility tag
The series can be described thus: thermal shift, SYPRO orange. It counts as binding. The settings on record: 2 mM L-fucose, pH 7.0; lower melting transition; domain not assigned. From the text: thermal shift, SYPRO orange on BfFKP

Substrate in series [3]: Nc1ncnc2c1ncn2[C@@H]1O[C@H](COP(=O)(O)OP(=O)(O)OP(=O)(O)O)[C@@H](O)[C@H]1O
Briefly: purified protein. The format is biochemical, Thermophagus xiamenensis. The settings on record: kinase activity, 1 mM L-fucose, 10 mM MnCl2, pH 7.5, 37 °C.

Substrate in series [4]: C[C@@H]1O[C@H](OP(=O)(O)O)[C@@H](O)[C@H](O)[C@@H]1O
The series can be described thus: purified protein. The format is biochemical, Thermophagus xiamenensis. The settings on record: pyrophosphorylase activity, 100 μM GTP, 10 mM MgCl2, pH 7.5, 37 °C.

Substrate in series [5]: Nc1nc2c(ncn2[C@@H]2O[C@H](COP(=O)(O)OP(=O)(O)OP(=O)(O)O)[C@@H](O)[C@H]2O)c(=O)[nH]1
The series can be described thus: purified protein. The format is biochemical, Thermophagus xiamenensis. The settings on record: pyrophosphorylase activity, 250 μM Fuc-1-P, 10 mM MgCl2, pH 7.5, 37 °C.

T2 sequence (Q58T34 whole entry): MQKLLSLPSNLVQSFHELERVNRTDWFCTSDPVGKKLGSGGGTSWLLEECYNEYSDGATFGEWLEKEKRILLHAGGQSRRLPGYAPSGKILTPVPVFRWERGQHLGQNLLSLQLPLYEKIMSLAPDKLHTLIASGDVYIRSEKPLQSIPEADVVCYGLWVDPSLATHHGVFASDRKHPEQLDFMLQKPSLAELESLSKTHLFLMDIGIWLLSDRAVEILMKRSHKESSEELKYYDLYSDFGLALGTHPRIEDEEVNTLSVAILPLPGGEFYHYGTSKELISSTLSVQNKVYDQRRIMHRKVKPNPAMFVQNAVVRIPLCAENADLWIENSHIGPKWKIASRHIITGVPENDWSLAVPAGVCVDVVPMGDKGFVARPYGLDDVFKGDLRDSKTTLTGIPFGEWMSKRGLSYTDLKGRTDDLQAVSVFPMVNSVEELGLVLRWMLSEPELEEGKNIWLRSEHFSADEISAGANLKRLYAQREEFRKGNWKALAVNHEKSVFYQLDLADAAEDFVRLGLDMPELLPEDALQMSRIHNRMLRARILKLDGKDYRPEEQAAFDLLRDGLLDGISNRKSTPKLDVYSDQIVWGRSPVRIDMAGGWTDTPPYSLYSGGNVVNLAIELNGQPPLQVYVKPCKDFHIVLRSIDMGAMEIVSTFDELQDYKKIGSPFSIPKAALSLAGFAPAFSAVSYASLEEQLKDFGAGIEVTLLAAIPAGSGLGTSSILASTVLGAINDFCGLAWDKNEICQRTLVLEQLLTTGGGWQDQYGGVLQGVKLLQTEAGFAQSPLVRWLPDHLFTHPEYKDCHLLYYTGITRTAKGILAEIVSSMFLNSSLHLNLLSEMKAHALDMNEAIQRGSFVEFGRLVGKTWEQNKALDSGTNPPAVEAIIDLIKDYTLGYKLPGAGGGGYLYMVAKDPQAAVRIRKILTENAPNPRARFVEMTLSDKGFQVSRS

As a reminder, the Km is the concentration of substrate that gives half-maximal velocity. As a reminder, the kcat is the number of substrate molecules converted per active site and unit of time at saturation. As a reminder, the kcat/Km is the turnover number divided by the Michaelis constant. In the case of BfFKP (Bacteroides fragilis), in series [1], the Km came to 140 ± 30 µM, the turnover number (kcat) amounted to 13 ± 3 s⁻¹ and the kcat/Km was determined as 90000 ± 30000 M⁻¹ s⁻¹. For the same molecule, in series [2], the Km stood at 120 ± 60 µM, the kcat worked out at 9 ± 3 s⁻¹ and the kcat/Km worked out at 70000 ± 50000 M⁻¹ s⁻¹.

For the molecule `C[C@@H]1OC(O)[C@@H](O)[C@H](O)[C@@H]1O` (stereo partly drawn) [L-fucose], the “Δ Tm2 (°C)” value on TxFKP stood at 1.8 ± 0.2 °C. The “ΔTm1 (°C)” value on BfFKP came to 2.0 ± 0.0 °C.

B1: TxFKP (Thermophagus xiamenensis) (protein)
chain: T1 sequence (A0A1I2DJ10 1-954)
notes: codon-optimized gene in pET-28a, E. coli BL21(DE3) with GroEL/GroES/Trigger Factor; Ni-IMAC; GroEL (~60 kDa) contaminant remains
On to B1, for which, in the series “purified protein [3]”, the Km came to 1000 ± 300 µM, the kcat worked out at 0.74 ± 0.07 s⁻¹ and the kcat/Km was 700 ± 300 M⁻¹ s⁻¹. In “purified protein [4]”, the Km amounted to 66 ± 20 µM, the kcat is 4.8 ± 0.6 s⁻¹ and the kcat/Km was found to be 70000 ± 30000 M⁻¹ s⁻¹. In “purified protein [5]”, the Km was determined as 27 ± 11 µM, the kcat is 8 ± 1.1 s⁻¹ and the kcat/Km stood at 300000 ± 130000 M⁻¹ s⁻¹.

For the origin of these results see paper PMC12732313, “Phylogenetic and biochemical analysis of the evolution and interdomain modularity of bifunctional L-fucokinase/GDP-fucose pyrophosphorylases” (The Journal of Biological Chemistry, 2025).
